In experiment [1] the target is T1, mKate2-tagged human Kv1.1 (S369T) channel (K-Kv1.1) (Homo sapiens, UniProt Q09470, S369T).
T1 construct: these fragments were combined and amplified using terminal primers to obtain the whole mutated gene; expressed in transfected cells; host or cells: mouse neuroblastoma Neuro2a cells, transient transfection with pmKate2-KCNA1m1
The experiment in a line: Competitive binding of peptide pore blocker and A-HgTx to K-Kv1.1 on the plasma membrane of Neuro2a cells (confocal microscopy). The following applies: for Kd: complete medium (closed channels), Neuro2a cells, A-HgTx 2 nM, 60 min, Cheng-Prusoff from DC50, mean ± SEM, two independent experiments, SEM, read-out: Kap (apparent dissociation constant of complex with K-Kv1.1). How it is done:
To analyze the binding of A-HgTx, A-HgTx (0.25–4 nM) was added to cells in a complete medium for 60 min. To analyze competitive binding, A-HgTx (2 nM), together with the selected peptide (0.05–160 nM), was added to cells in a complete medium for 60 min.
To compare ligand binding with closed and open channels, ligands were added to cells (60 min, 37 °C) in a buffer (20 mM HEPES pH 7.4, 0.9 mM CaCl2, 0.5 mM MgCl2, 0.1% BSA) supplemented with 4 mM KCl and 150 mM NaCl (Na^+ buffer) or with 150 mM KCl (K^+ buffer).
The fluorescence of the K-Kv1.1 and K-Kv1.1wt channels was excited at 561 nm and detected in the 650–700 nm region. A-HgTx fluorescence was excited at 488 nm and detected in the 495–535 nm region. Sequential scanning was used to measure the cellular distributions of A-HgTx and mKate2 fluorescence in order to avoid interference of mKate2 fluorescence with cellular autofluorescence excited at 488 nm.
Quantitative analysis of the interaction of A-HgTx with K-Kv1.1 was carried out in accordance with the procedure developed previously for A-HgTx and the fluorescently labeled Kv1.3 channel. Briefly, the regions of interest with K-Kv1.1 on the plasma membrane were selected in the confocal images and used to create binary (0;1) masks that described the membranous distribution of K-Kv1.1. The confocal images of K-Kv1.1 and A-HgTx were multiplied by the corresponding mask, and the average fluorescence intensities of A-HgTx (Ili) and K-Kv1.1 (Ici) corrected for the background signal were calculated for each i-cell. Ratio Ri = Ili/Ici was calculated and averaged over 15–20 cells to obtain the Rav value and the standard deviation.
To analyze the competitive binding of the studied peptide pore blocker and A-HgTx to K-Kv1.1 on the cellular membrane, Rav data were plotted depending on the blocker concentration (C) at the constant A-HgTx concentration (L) and fitted with the following equation:Rav(C) = Rav0/(1 + C/DC50)(3) where DC50 is the blocker concentration displacing 50% of A-HgTx from the complex with K-Kv1.1, and Rav0 is Rav at C = 0.
The apparent dissociation constant (Kap) of the complex between the studied blocker and the K-Kv1.1 channel was calculated using the Cheng–Prusoff equation:Kap = DC50/(1 + L/Kd).(4)
Two independent experiments were performed, and the Kav data were averaged and presented as mean ± SEM. Fifteen to twenty-five treated cell images were the average value for each point on the curves of A-HgTx binding to the K-Kv1.1 channel.

Experiment [2] concerns non-transfected Neuro2a cells. The following applies: cited from earlier work.
For experiment [3], the target named is T2, K-Kv1.1 channel (hKv1.1S369T with mKate2) (Homo sapiens, UniProt Q09470, S369T).
T2 construct: these fragments were combined and amplified using terminal primers to obtain the whole mutated gene; expressed in transfected cells; host or cells: mouse neuroblastoma Neuro2a cells, transient transfection with pmKate2-KCNA1m1
The experiment in a line: Whole-cell patch-clamp of currents through K-Kv1.1 in Neuro2a cells. It is filed as cell-based. Particulars: HgTx1 2 nM, applied voltage from −10 to 70 mV, n = 10. How it is done:
Membrane ion currents through the K-Kv1.1 channel were recorded at room temperature by the patch-clamp technique using the standard whole-cell configuration as described earlier.
Briefly, Neuro2a cells attached to coverslips (10 mm in diameter) pre-coated with poly-D-lysine were immersed in a buffer (140 mM NaCl, 2.8 mM KCl, 2 mM MgCl2, 2 mM CaCl2, 10 mM glucose, 10 mM HEPES, pH 7.4) and perfused continuously. Micropipettes with a tip resistance of 6–8 MΩ were filled with a pipette solution containing 140 mM KCl, 6 mM CaCl2, 2 mM MgCl2, 2 mM MgATP, 0.4 mM NaGTP, 10 mM HEPES, 20 mM BAPTA/KOH (pH 7.3). The patches were routinely held at a holding potential of −40 mV. The potential was changed from −70 to +70 mV (20 mV step) using 200 ms pulses, which were applied incrementally with an interval of 20 s. Finally, the potential returned to the holding potential.
Cells were measured 24–48 h after transfection. The cells were selected by K-Kv1.1 fluorescence. The cells were analyzed if their input resistance was more than 350 MΩ. The currents were recorded using an EPC-10 amplifier (HEKA Elektronik, Stuttgart, Germany).
[…] The toxins were dissolved in a complete medium.
The measured concentration dependence of current inhibition through the K-Kv1.1 channel by A-HgTx was analyzed with the following equation:Irel(L) = 100/(1 + (IC50/L)^h) (1) where Irel is a decrease in current (%), L is the concentration of A-HgTx, IC50 is the concentration of A-HgTx that induces a 50% decrease in current, and h is the Hill coefficient.

Experiment [4] deals with Kv1.3 (Homo sapiens) (UniProt P22001). Particulars: cited from earlier work.
Experiment [5] addresses T3, Kv1.1 (K-Kv1.1, mKate2-tagged) (Homo sapiens, UniProt Q09470).
T3 chain: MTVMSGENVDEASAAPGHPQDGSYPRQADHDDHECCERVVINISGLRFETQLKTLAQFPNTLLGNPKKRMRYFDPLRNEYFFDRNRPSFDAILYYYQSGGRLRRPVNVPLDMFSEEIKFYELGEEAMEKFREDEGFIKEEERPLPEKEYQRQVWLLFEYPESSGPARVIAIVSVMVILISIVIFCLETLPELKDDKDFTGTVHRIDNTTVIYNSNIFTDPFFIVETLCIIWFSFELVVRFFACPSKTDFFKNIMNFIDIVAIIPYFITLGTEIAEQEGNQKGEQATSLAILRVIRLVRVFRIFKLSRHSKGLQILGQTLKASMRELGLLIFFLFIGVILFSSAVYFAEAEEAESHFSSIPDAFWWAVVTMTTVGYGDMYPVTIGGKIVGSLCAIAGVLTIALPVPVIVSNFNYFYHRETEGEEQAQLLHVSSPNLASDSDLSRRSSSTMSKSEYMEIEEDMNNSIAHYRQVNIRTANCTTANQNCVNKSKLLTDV
Kind of experiment: competitive confocal fluorescence binding with A-HgTx, complete medium.

Experiment [6] addresses T3, Kv1.1 (K-Kv1.1, mKate2-tagged). Kind of experiment: competitive confocal fluorescence binding with A-HgTx, K+ buffer (open state).
The target is the same in experiment [7]. The experiment in a line: confocal fluorescence binding on Neuro2a cells, Na+ buffer (closed state).
The target is the same in experiment [8]. The experiment in a line: confocal fluorescence binding on Neuro2a cells, complete medium.
Experiment [9] has the same target. Kind of experiment: confocal fluorescence binding on Neuro2a cells, K+ buffer (open state).

Bridge positions count the residues as written; N and C are the ends. Peptide text beside a SMILES is read from it.

Kv1.3 (Homo sapiens), sequence (P22001 whole entry): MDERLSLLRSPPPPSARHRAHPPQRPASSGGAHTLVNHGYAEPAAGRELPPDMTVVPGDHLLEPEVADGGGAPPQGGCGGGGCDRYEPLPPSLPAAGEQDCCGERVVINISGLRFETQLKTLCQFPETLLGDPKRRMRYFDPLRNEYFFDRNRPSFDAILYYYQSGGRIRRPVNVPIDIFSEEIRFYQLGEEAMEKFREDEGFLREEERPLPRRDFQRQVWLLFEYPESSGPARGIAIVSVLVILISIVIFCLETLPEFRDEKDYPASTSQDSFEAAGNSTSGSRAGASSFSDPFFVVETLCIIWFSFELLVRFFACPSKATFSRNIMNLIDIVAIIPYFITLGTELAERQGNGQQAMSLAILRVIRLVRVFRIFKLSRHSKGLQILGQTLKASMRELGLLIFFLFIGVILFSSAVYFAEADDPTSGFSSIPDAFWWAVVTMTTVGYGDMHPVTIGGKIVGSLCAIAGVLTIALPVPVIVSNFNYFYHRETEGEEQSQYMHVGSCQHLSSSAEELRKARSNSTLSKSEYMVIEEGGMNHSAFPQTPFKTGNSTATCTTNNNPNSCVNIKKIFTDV

On to `CC[C@H](C)[C@H](NC(=O)[C@H](CCC(=O)O)NC(=O)[C@@H](NC(=O)CN)C(C)C)C(=O)N[C@@H](CC(N)=O)C(=O)N[C@H](C(=O)N[C@@H](CCCCN)C(=O)N[C@H]1CSSC[C@@H]2NC(=O)[C@H](CCCCN)NC(=O)CNC(=O)[C@H](Cc3ccccc3)NC(=O)[C@H](CCCNC(=N)N)NC(=O)[C@H](CCSC)NC(=O)CNC(=O)[C@H](C)NC(=O)[C@H](CC(=O)O)NC(=O)[C@H](CCCCN)NC(=O)[C@@H]3CSSC[C@@H](C(=O)N[C@H](C(=O)N4CCC[C@H]4C(=O)N[C@@H](CCCCN)C(=O)O)[C@@H](C)O)NC(=O)[C@H](Cc4c[nH]cn4)NC(=O)[C@H](CSSC[C@H](NC(=O)[C@H](CCC(N)=O)NC(=O)[C@@H]4CCCN4C(=O)[C@H](CO)NC(=O)CNC(=O)[C@H](CO)NC1=O)C(=O)N[C@@H](CC(C)C)C(=O)N[C@@H](CCCCN)C(=O)N1CCC[C@H]1C(=O)N3)NC(=O)[C@H](CCCCN)NC(=O)[C@H](CCCNC(=N)N)NC(=O)[C@H](CC(N)=O)NC(=O)[C@H](CCSC)NC2=O)C(C)C` [KTx1, kaliotoxin 1], for which the Kd in [1] was determined as 0.12 ± 0.08 nM.
Consider charybdotoxin [ChTx], for which, in experiment [1] (A-HgTx (2 nM) displacement compared in complete medium, Na+ and K+ buffers), the “effect of channel state (closed or open) on affinity of K-Kv1.1 for the peptide” value is “does not affect the affinity”. Moreover, the “effect on binding of A-HgTx (2 nM) to K-Kv1.1” value in experiment [1] (ChTx 100 nM) is “does not affect the binding of A-HgTx to K-Kv1.1”. Moreover, the “sensitivity of background currents to the blocker” value in experiment [2] is recorded as “insensitive”.
In the case of `CC[C@H](C)[C@@H]1NC(=O)[C@@H]2CSSC[C@@H]3NC(=O)[C@H](CCCCN)NC(=O)[C@H](CCCNC(=N)N)NC(=O)[C@H](CC(N)=O)NC(=O)[C@H](CCSC)NC(=O)[C@H](CSSC[C@H](NC(=O)[C@H](CO)NC(=O)[C@@H](NC(=O)[C@H](CC(N)=O)NC(=O)[C@@H](NC(=O)[C@@H]4CCCN4C(=O)[C@@H](NC(=O)CN)C(C)C)[C@@H](C)CC)C(C)C)C(=O)N[C@@H]([C@@H](C)O)C(=O)NCC(=O)N[C@@H](CO)C(=O)N4CCC[C@H]4C(=O)N[C@@H](CCC(N)=O)C(=O)N2)NC(=O)[C@H](CCCCN)NC(=O)CNC(=O)[C@H](Cc2ccccc2)NC(=O)[C@H](CCCNC(=N)N)NC(=O)[C@H](CCSC)NC(=O)CNC(=O)[C@H](C)NC(=O)[C@H](CC(=O)O)NC(=O)[C@H](CCCCN)NC(=O)[C@H](CSSC[C@@H](C(=O)N[C@H](C(=O)N2CCC[C@H]2C(=O)N[C@@H](CCCCN)C(=O)O)[C@@H](C)O)NC(=O)[C@H](Cc2c[nH]cn2)NC3=O)NC(=O)[C@@H]2CCCN2C(=O)[C@H](CCCCN)NC1=O` [AgTx2, agitoxin 2], the Kd in experiment [1] was determined as 1.5 ± 0.7 nM.
Consider `CC[C@H](C)[C@@H]1NC(=O)CNC(=O)[C@H](Cc2ccccc2)NC(=O)[C@H](CCC(N)=O)NC(=O)[C@H](C)NC(=O)[C@H](CCCCN)NC(=O)[C@@H]2CSSC[C@@H](C(=O)N[C@@H](Cc3ccc(O)cc3)C(=O)N3CCC[C@H]3C(=O)N[C@@H](Cc3c[nH]cn3)C(=O)O)NC(=O)[C@H](CCCCN)NC(=O)[C@@H]3CSSC[C@H](NC(=O)[C@H](CCC(N)=O)NC(=O)[C@H](CCCCN)NC(=O)[C@@H]4CCCN4C(=O)[C@H](CO)NC(=O)[C@H]([C@@H](C)O)NC(=O)[C@@H](NC(=O)[C@H](CCCCN)NC(=O)[C@@H](NC(=O)[C@H](CC(=O)O)NC(=O)[C@@H](NC(=O)[C@@H](NC(=O)[C@@H](N)[C@@H](C)O)C(C)C)[C@@H](C)CC)C(C)C)CSSC[C@H](NC(=O)[C@H](CCCCN)NC(=O)[C@H](C)NC(=O)CNC(=O)[C@H](C)NC(=O)[C@H](CCCNC(=N)N)NC1=O)C(=O)N[C@@H](CCSC)C(=O)N[C@@H](CC(N)=O)C(=O)NCC(=O)N[C@@H](CCCCN)C(=O)N3)C(=O)N[C@@H](CC(C)C)C(=O)N1CCC[C@H]1C(=O)N1CCC[C@H]1C(=O)N2` [HgTx1, hongotoxin 1] (H-TVIDVKCTSPKQCLPPCKAQFGIRAGAKCMNGKCKCYPH-OH; disulfide 7-29, 13-34, 17-36), for which the “decrease in the peak current amplitude” value in experiment [3] is 73 ± 8%.
On to “A-HgTx (Atto-labelled hongotoxin 1) (from UniProt P59847)”, for which the Kd in [4] was 0.3 nM.
TVIDVKCTSPKQCLPPCKAQFGIRAGAKCMNGKCKCYPH [hongotoxin 1 (HgTx1)]: the values for the Kd in experiment [5] and in [6] were 0.03 nM and 0.05 nM, respectively.
In the case of TIINVKCTSPKQCLPPCKAQFGQSAGAKCMNGKCKCYPH [margatoxin (MgTx)], the Kd in [5] was found to be 0.3 nM; in experiment [6], 0.5 nM.
Consider TVIDVKCTSPKQCLPPCKAQFGIRAGAKCMNGKCKCYPH [Atto 488-hongotoxin 1 (A-HgTx)], for which the Kd in [7] stood at 0.9 nM; in [8], 0.7 nM; in [9], 0.8 nM.
For the molecule TVINVKCTSPKQCLKPCKDLYGPHAGAKCMNGKCKCYNN [Ce1], the Kd in [5] worked out at 11 nM; in experiment [6], 18 nM.

(Values after PMC10383195, “Interactions of the Kv1.1 Channel with Peptide Pore Blockers: A Fluorescent Analysis on Mammalian Cells” (Membranes, 2023).)
